{"source": "paper PMC8162069"}
{"substrate": "O=C[C@H](O)COP(=O)(O)O", "experiment": "purified protein", "format": "biochemical, Trichoderma virens", "settings": "without HA", "units": {"Km": "mM", "kcat": "s⁻¹", "kcat/Km": "M⁻¹ s⁻¹"}}
{"protein": "HepG (Trichoderma virens Gv29-8; A201L) (protein) MVPKVGINGFGRIGRVVLRNALETGAVEVVALNDPFIEPHYAEYMFKYDSTHGRFKGDIKVDGKDLVIDGKRIKFYQERDPANIPWKDSGAEYIVESTGVFTTTEKASAHFKGGAKKVIISAPSADAPMYVMGVNEDTYAGANVISNASCTTNCLAPLAKTLNDKFTIVEGLMTAIHAYTASQKTVDGPSSKDWRGGRAALQNLIPSSTGAAKAVGKVIPELAGKVTGMSVRVPTVNVSLVDFTVRFAKDVTYDEVKAAIKEASEGPLKGILAYTEDDIVSTDILTDPHSSTFDAKAGIALNKNFVKVMSWYDNEYGYSRRVVDLIVFVSKKDAGQ", "Km": "0.26 ± 0.05", "kcat": "21.7 ± 3.33", "kcat/Km": 83300}
{"protein": "HepG (Trichoderma virens Gv29-8) (protein) MVPKVGINGFGRIGRVVLRNALETGAVEVVALNDPFIEPHYAEYMFKYDSTHGRFKGDIKVDGKDLVIDGKRIKFYQERDPANIPWKDSGAEYIVESTGVFTTTEKASAHFKGGAKKVIISAPSADAPMYVMGVNEDTYAGANVISNASCTTNCLAPLAKTLNDKFTIVEGLMTAIHAYTASQKTVDGPSSKDWRGGRAAAQNLIPSSTGAAKAVGKVIPELAGKVTGMSVRVPTVNVSLVDFTVRFAKDVTYDEVKAAIKEASEGPLKGILAYTEDDIVSTDILTDPHSSTFDAKAGIALNKNFVKVMSWYDNEYGYSRRVVDLIVFVSKKDAGQ", "Km": "0.28 ± 0.05", "kcat": "41.7 ± 6.67", "kcat/Km": 148000}
{"protein": "Tv-GAPDH (Trichoderma virens Gv29-8) (protein) MAPIKVGINGFGRIGRIVFRNAVEHPDIEVVAVNDPFIETTYAAYMLKYDSSHGLFKGDVEVDGKDLVVNGKKVRFYTERDPANIKWSETGADYIVESTGVFTTTEKAKAHLVGGAKKVIISAPSADAPMYVMGVNENDYNGSADVISNASCTTNCLAPLAKVINDNYGIVEGLMTTVHSYTATQKTVDGPSAKDWRGGRGAAQNIIPSSTGAAKAVGKVIPSLNGKLTGMSIRVPTANVSVVDLTVRLEKGATYAEITETIKKAADGPLKGVLAYTNDDVVSSDMLGNTNSSIFDIKAGISLNDNFVKLVSWYDNEWGYSRRVLDLLAHVAKVDASK", "Km": "1.1 ± 0.2", "kcat": "115 ± 21.7", "kcat/Km": 105000}
